Numbering of substitutions follows the chain as printed. Names and notes keep the numbering of the source. Values joined by “and” are separate entries in the source; they are usually repeats but may differ in a detail not shown here. Identical values can stand only once. One block for each binder: values may come before it.
Experiments:
Mouse HVEM-Fc [1] = target: T1, Mouse HVEM-Fc (mouse, UniProt Q80WM9); experiment: ELISA, coated mouse HVEM-mFc, anti-human IgG4-HRP
T1 construct: part fused to Fc; also called mouse HVEM-mFc; mHVEM
T1 sequence (fusion chain, looked up): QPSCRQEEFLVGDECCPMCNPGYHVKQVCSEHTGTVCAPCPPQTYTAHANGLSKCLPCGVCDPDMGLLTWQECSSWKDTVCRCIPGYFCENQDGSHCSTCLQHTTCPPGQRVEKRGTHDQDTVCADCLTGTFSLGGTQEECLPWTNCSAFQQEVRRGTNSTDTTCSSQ
Procedure: (§1) The binding ability of the full-size human antibody to HVEM was analyzed using an ELISA testing method. 0.2 μg/ml of each of human HVEM-hFc, cynomolgus monkey HVEM-hFc, and mouse HVEM-mFc proteins was coated on a 96-half-well plate for immunosorbent assay. To inhibit non-specific binding, reaction was carried out in phosphate buffered saline (PBS) containing 3% bovine serum albumin (BSA) for 1 hour, followed by treatment with serially diluted antibodies for 1 hour. To measure the amounts of the bound antibodies, horse radish peroxidase (HRP)-conjugated anti-human IgG4 antibody was used, and for the activity of HRP, a color reaction was induced using a 3,3′,5,5′-tetramethylbenzidine (TMB) substrate solution, and the reaction was terminated with 1N sulfuric acid. […] In the middle of each step, washing was performed three times using PBS (PBST) containing 0.1% Triton X-100. The binding ability of the antibodies was derived using SigmaPlot.

Mouse HVEM-Fc [2] = target: T1, Mouse HVEM-Fc; experiment: ELISA, coated mouse HVEM-mFc 0.2 ug/ml, anti-human IgG4-HRP, SigmaPlot fit
Procedure: as §1

human HVEM-Fc protein [3] = target: T2, human HVEM-Fc protein (human, UniProt Q92956 39-202, limits assumed); experiment: ELISA, coated human HVEM-hFc, anti-human IgG4-HRP
T2 construct: not shown: Fc
T2 sequence (looked up): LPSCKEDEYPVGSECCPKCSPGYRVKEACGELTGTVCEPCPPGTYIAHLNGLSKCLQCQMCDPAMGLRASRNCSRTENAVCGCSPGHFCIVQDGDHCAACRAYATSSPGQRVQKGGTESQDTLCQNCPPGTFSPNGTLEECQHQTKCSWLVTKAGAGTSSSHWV

human HVEM-Fc protein [4] = target: T2, human HVEM-Fc protein; experiment: ELISA, coated human HVEM-hFc 0.2 ug/ml, anti-human IgG4-HRP, SigmaPlot fit
Procedure: as §1

Monkey HVEM-Fc = target: T3, Monkey HVEM-Fc (Macaca fascicularis, UniProt A0A2K5W0R1); experiment: ELISA, coated cynomolgus monkey HVEM-hFc, anti-human IgG4-HRP
T3 construct: part fused to Fc; also called cynomolgus monkey HVEM-hFc
T3 sequence (fusion chain): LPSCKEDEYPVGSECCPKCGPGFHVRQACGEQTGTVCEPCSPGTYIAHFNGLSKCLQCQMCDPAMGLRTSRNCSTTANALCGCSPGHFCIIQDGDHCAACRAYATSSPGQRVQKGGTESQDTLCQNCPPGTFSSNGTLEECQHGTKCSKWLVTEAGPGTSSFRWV
Procedure: as §1

human HVEM-Fc protein [5] = target: T2, human HVEM-Fc protein; experiment: Octet BLI
human HVEM-Fc protein [6] = target: T2, human HVEM-Fc protein; experiment: Octet BLI (column kdis)
human HVEM-Fc protein [7] = target: T2, human HVEM-Fc protein; experiment: flow cytometry competition: human HVEM-Fc 1 ug/ml on BTLA-expressing Jurkat cells, antibody 10 or 100 nM; blocked ligand BTLA
Procedure: For flow cytometry, the stained cell lines were fixed on ice for 20 minutes using PBS containing 2% formaldehyde and stored in a refrigerator until flow cytometry.

B1: HVEM001 (antibody, human IgG4 S228P, kappa, V domains shown)
VH: EVQLLESGGGLVQPGGSLRLSCAASGFTFSNYAMHWVRQAPGKGLEWVSNINPSGGSTTYAQEFEDRFTISRDNSKNTLYLQMNSLRAEDTAVYYCATRSRQDSWGYFDIWGQGTLVTVSS
VL: EIVLTQSPGTLSLSPGERATLSCRASRSISNYLAWYQQKPGQAPRLLIYGASTRATGIPDRFSGSGSGTDFTLTISRLEPEDFAVYYCQQYGSSPPLTFGQGTKVEIKR
- binding affinity (ELISA fit; table in pM) (Mouse HVEM-Fc [1]): 228 pM
- binding affinity (ELISA fit) (Mouse HVEM-Fc [2]): 151 pM
- binding affinity (ELISA fit; table in pM) (human HVEM-Fc protein [3]): 32.8 pM
- binding affinity (ELISA fit) (human HVEM-Fc protein [4]): 22 pM
- binding affinity (ELISA fit; table in pM) (Monkey HVEM-Fc): 341 pM
- Kd (human HVEM-Fc protein [5]): 0.0263 nM
- kon (human HVEM-Fc protein [5]): 287000 M⁻¹ s⁻¹
- koff (human HVEM-Fc protein [6]): 7.55e-06 s⁻¹

B3: HVEM017 (antibody, human IgG4 S228P, kappa, V domains shown)
VH: EVQLLESGGGLVQPGGSLRLSCAASGFTFSTNYMSWVRQAPGKGLEWVSLISYSGSNKYYADSVKGRFTISHDNSKNTLYLQMNSLRAEDTAVYYCARGRGNTISGTFDLWGQGTLVTVSS
VL: B1 VL with I29V, S30G, N31K, G50S, R54L, A55S, T56S, L97I
notes: also called HVEM0017
- binding affinity (ELISA fit) (Mouse HVEM-Fc [2]): 112 pM
- binding affinity (ELISA fit) (human HVEM-Fc protein [4]): 21.5 pM

B4: HVEM030 (antibody, human IgG4 S228P, kappa, V domains shown)
VH: EVQLLESGGGLVQPGGSLRLSCAASGFTFSGYYWTWVRQAPGKGLEWVSTISASGDSTYYADSVKGRFTISRDNSKNTLYLQMNSLRAEDTAVYYCAHDRTFGYFDYWGQGTLVTVSS
VL: B1 VL with I29V, S30G, N31K, G50A, T53S, R54L, A55Q, T56S, L97I
- binding affinity (ELISA fit) (Mouse HVEM-Fc [2]): 16.6 pM
- binding affinity (ELISA fit) (human HVEM-Fc protein [4]): 16.1 pM

B6: HVEM021 (antibody, human IgG4 S228P, kappa, V domains shown)
VH: EVQLLESGGGLVQPGGSLRLSCAASGFTFSTFAMHWVRQAPGKGLEWVSSIYPSGNTHYKPSLKSRFTISRDNSKNTLYLQMNSLRAEDTAVYYCARRHPGGGWIFDYWGQGTLVTVSS
VL: B1 VL with I29V, S30G, N31K, L97V
notes: Full-size human IgG4 (S228P) kappa antibody made in ExpiCHO-S; human IL-2 signal peptide is cleaved and left out; also called HVEM021 antibody
- binding affinity (ELISA fit; table in pM) (Mouse HVEM-Fc [1]): 55.6 pM
- binding affinity (ELISA fit; table in pM) (human HVEM-Fc protein [3]): 32.5 pM
- binding affinity (ELISA fit; table in pM) (Monkey HVEM-Fc): 61.8 pM
- Kd (human HVEM-Fc protein [5]): 0.0344 nM
- kon (human HVEM-Fc protein [5]): 471000 M⁻¹ s⁻¹
- koff (human HVEM-Fc protein [6]): 1.62e-06 s⁻¹

B7: HVEM011 (antibody, human IgG4 S228P, kappa, V domains shown)
VH: EVQLLESGGGLVQPGGSLRLSCAASEFTFSSYAMHWVRQAPGKGLEWVSSITSASSYIDYADSVKGRFTISRDNSKNTLYLQMNSLRAEDTAVYYCARGTRGLFDHWGQGTLVTVSS
VL: B1 VL with I29V, S30G, N31K, G50L, A51G, T53N, T56S, L97I
notes: Full-size human IgG4 (S228P) kappa antibody made in ExpiCHO-S; human IL-2 signal peptide is cleaved and left out; also called HVEM011 antibody
- binding affinity (ELISA fit; table in pM) (Mouse HVEM-Fc [1]): 203 pM
- binding affinity (ELISA fit) (Mouse HVEM-Fc [2]): 219 pM
- binding affinity (ELISA fit; table in pM) (human HVEM-Fc protein [3]): 25.9 pM
- binding affinity (ELISA fit) (human HVEM-Fc protein [4]): 23.4 pM
- binding affinity (ELISA fit; table in pM) (Monkey HVEM-Fc): 65.9 pM
- Kd (human HVEM-Fc protein [5]): 0.0225 nM and 0.0146 nM
- kon (human HVEM-Fc protein [5]): 425000 M⁻¹ s⁻¹ and 598000 M⁻¹ s⁻¹
- koff (human HVEM-Fc protein [6]): 9.53e-06 s⁻¹ and 8.75e-06 s⁻¹

B9: HVEM032 (antibody, human IgG4 S228P, kappa, V domains shown)
VH: EVQLLESGGGLVQPGGSLRLSCAASGFTFSNYAIHWVRQAPGKGLEWVSTISSPGSTINYADSVKGRFTISRDNSKNTLYLQMNSLRAEDTAVYYCASGYLYPAMDVWGQGTLVTVSS
VL: B1 VL with I29V, S30G, N31K, A34S, T53K, R54L, A55Q, T56S, S94W, L97F
- binding affinity (ELISA fit) (Mouse HVEM-Fc [2]): 114 pM
- binding affinity (ELISA fit) (human HVEM-Fc protein [4]): 16.9 pM

B10: HVEM018 (antibody, human IgG4 S228P, kappa, V domains shown)
VH: EVQLLESGGGLVQPGGSLRLSCAASGFTFSSYSMNWVRQAPGKGLEWVSAISGSGGGTYSADSVKGRFTISRDNSKNTLYLQMNSLRAEDTAVYYCARGKAYGYFDYWGQGTLVTVSS
VL: B1 VL with I29V, S30G, N31K, G50A, R54L, A55Q, T56S, L97V, T98I
- binding affinity (ELISA fit) (Mouse HVEM-Fc [2]): 158 pM
- binding affinity (ELISA fit) (human HVEM-Fc protein [4]): 25.9 pM

Next, values leading:

- binding affinity (ELISA fit) (Mouse HVEM-Fc [2]): 141 pM
- binding affinity (ELISA fit) (human HVEM-Fc protein [4]): 20.1 pM
B2: HVEM041 (antibody, human IgG4 S228P, kappa, V domains shown)
VH: EVQLLESGGGLVQPGGSLRLSCAASGFTFSSYAMSWVRQAPGKGLEWVSEISQSGSSNYNPSLKSRFTISRDNSKNTLYLQMNSLRAEDTAVYYCATGRWRFDYWGQGTLVTVSS
VL: B1 VL with I29V, S30G, N31K, L97V

- binding affinity (ELISA fit) (Mouse HVEM-Fc [2]): 334 pM
- binding affinity (ELISA fit) (human HVEM-Fc protein [4]): 19.5 pM
B5: HVEM039 (antibody, human IgG4 S228P, kappa, V domains shown)
VH: EVQLLESGGGLVQPGGSLRLSCAASGFTFSSYGMNWVRQAPGKGLEWVSIINPSGDTTTYAQKFQGRFTISRDNSKNTLYLQMNSLRAEDTAVYYCARGRGAFDYWGQGTLVTVSS
VL: B1 VL with I29V, S30G, N31K, S52T, T53S, L97V

- binding result (human HVEM-Fc protein [7]): binds
B8: HVEM004 (antibody, human IgG4 S228P, kappa, V domains shown)
VH: EVQLLESGGGLVQPGGSLRLSCAASGFTFSSYAMSWVRQAPGKGLEWVSSISGSGGKTYYADSVRGRFTISRDNSKNTLYLQMNSLRAEDTAVYYCAKGVGYTTSGRFDYWGQGTLVTVSS
VL: B1 VL with N31S, A51V, S94W, L97F

- binding affinity (ELISA fit) (Mouse HVEM-Fc [2]): 126 pM
- binding affinity (ELISA fit) (human HVEM-Fc protein [4]): 20 pM
B11: HVEM040 (antibody, human IgG4 S228P, kappa, V domains shown)
VH: EVQLLESGGGLVQPGGSLRLSCAASGFTFSNYGMSWVRQAPGKGLEWVSSIYYSGDTYYNPSLESRFTISRDNSKNTLYLQMNSLRAEDTAVYYCASGSNAFDIWGQGTLVTVSS
VL: B1 VL with I29V, S30G, N31K, T53S, A55T, L97V

— patent US20240034800A1 (MEDYTOX, published 2024)
